Source: US20160235814A1

Target: human IgG (coated on 96-well plates to form immune complexes, IC) (human)
Experiment: cell-based or functional assay

ROS production by IC-activated human neutrophils (scale: % reduction of ROS production at 0.01 mg/ml sCD32): 30 | ROS production by IC-activated human neutrophils (scale: % reduction of ROS production at 0.1 mg/ml sCD32): 65 | ROS production by IC-activated human neutrophils (scale: % reduction of ROS production at 0.5 mg/ml sCD32): 75
Substance: Human sCD32 (SM101), recombinant soluble human FcγRIIB (from UniProt P31994 46-221) (receptor)
